Test results: article PMC3298081 (Arteriosclerosis, Thrombosis, and Vascular Biology, 2012)

Target: thrombospondin-1 (human, UniProt P07996 19-1170)
Experiment: ELISA

thrombospondin-1, sequence (P07996 19-1170): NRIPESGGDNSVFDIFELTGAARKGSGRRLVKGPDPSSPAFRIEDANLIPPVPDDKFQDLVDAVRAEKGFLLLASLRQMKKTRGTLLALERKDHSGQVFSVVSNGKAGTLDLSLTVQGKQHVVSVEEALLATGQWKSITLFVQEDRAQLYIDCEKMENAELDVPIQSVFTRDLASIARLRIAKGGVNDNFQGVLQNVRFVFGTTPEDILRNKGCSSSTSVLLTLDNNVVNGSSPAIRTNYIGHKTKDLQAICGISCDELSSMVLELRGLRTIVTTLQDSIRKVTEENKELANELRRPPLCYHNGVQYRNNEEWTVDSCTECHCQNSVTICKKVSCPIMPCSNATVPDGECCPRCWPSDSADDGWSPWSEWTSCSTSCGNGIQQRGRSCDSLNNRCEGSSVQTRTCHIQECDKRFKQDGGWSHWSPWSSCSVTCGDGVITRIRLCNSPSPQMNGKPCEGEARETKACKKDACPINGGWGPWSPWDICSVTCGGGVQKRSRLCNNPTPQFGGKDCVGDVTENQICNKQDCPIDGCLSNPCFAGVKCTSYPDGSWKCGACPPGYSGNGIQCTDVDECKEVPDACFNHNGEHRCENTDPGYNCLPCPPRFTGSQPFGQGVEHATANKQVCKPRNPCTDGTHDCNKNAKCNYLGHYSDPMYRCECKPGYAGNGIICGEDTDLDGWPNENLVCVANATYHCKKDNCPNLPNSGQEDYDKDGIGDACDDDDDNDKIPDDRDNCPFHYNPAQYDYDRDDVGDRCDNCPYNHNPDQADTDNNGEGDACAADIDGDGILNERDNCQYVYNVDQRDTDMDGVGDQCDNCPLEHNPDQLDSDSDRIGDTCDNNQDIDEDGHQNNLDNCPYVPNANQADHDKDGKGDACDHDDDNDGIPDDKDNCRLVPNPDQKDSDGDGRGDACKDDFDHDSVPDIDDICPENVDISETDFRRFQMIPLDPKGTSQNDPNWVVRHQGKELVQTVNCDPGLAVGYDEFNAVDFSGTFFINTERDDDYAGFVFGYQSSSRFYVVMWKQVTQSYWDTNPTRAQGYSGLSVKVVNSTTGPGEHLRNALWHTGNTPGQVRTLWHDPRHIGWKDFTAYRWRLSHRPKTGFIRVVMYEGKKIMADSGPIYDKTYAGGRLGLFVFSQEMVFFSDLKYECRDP

binding result: binds
B1: recombinant thioredoxin/extended CD36 CLESH domain fusion protein (non-phosphorylated) (domain or fragment, human, UniProt P16671 81-120, looked up)
chain: SNIQVKQRGPYTYRVRFLAKENVTQDAEDNTVSFLQPNGA
